One substance from paper PMC4345975 can be followed below.

For this assay, the target named is GFP–cyclin A (human) (UniProt P20248). Description: fluorescence cross-correlation spectroscopy.
Chain of UniProt P20248 (P20248 whole entry): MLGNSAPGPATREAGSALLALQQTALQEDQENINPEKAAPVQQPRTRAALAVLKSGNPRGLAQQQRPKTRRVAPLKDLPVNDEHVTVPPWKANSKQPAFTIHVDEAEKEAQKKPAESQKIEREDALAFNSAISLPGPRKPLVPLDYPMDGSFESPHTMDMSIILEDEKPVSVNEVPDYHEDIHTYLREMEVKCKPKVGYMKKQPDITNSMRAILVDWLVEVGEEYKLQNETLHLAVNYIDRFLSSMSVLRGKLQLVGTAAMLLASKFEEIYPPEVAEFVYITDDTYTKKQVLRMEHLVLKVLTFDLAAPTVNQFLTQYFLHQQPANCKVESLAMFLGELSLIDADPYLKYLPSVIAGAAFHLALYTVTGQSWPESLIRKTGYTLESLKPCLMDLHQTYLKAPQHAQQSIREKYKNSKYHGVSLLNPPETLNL

The substance “mCherry–SAMHD1 (from UniProt Q9Y3Z3 1-626) (natural protein)” showed a cross-correlation of 9.9%.
